pKd: −log10 of the molar value. One block for each substance: values may come before it.
Columns and labels:
[1] = molecular target: MR1 C262S loaded with acetyl-6-formylpterin (Ac-6-FP) (UniProt Q95460); assay: SPR, TAPBPR-biotin on streptavidin chip, Ac-6-FP loaded MR1 C262S as analyte
1G4 TCR [2] = assay: flow cytometry; PE tetramer (1 µg/mL) on human T cells transduced with the 1G4 TCR; tetramer from TAPBPR-catalysed peptide exchange; no percent sign printed
1G4 TCR [3] = assay: flow cytometry; PE tetramer (1 µg/mL) on human T cells transduced with the 1G4 TCR; tetramer from conventional refolding; no percent sign printed
[4] = molecular target: MR1 C262S loaded with acetyl-6-formylpterin (Ac-6-FP) (UniProt Q95460); assay: SPR; MR1 C262S/Ac-6-FP, 10 to 100 µM, over hTAPBPR^KRQ-biotin on a streptavidin chip; steady-state fit in the inset
[5] = molecular target: HLA-B*08:01/hb2m/FLRGRAJGL (peptide-loaded) (human)
[6] = molecular target: HLA-A*01:01/hb2m/STAPGJLEY (peptide-loaded) (human); assay: cell-based or functional assay
[7] = molecular target: HLA-A*24:02/hb2m/VYGJVRACL (peptide-loaded) (human); assay: SPR, TAPBPR-biotin on streptavidin chip, peptide-loaded HLA as analyte
[8] = molecular target: HLA-A*29:02/hb2m/VFAQVKQJY (peptide-loaded) (human); assay: as above
[9] = molecular target: peptide-deficient (empty) HLA-A*01:01/hb2m (human); assay: SPR, TAPBPR-biotin on streptavidin chip, UV-irradiated (empty) HLA as analyte
[10] = molecular target: peptide-deficient (empty) HLA-A*02:01/hb2m (human); assay: as above
[11] = molecular target: peptide-deficient (empty) HLA-A*11:01/hb2m (human); assay: as above
[12] = molecular target: peptide-deficient (empty) HLA-A*24:02/hb2m (human); assay: as above
[13] = molecular target: peptide-deficient (empty) HLA-A*29:02/hb2m (human); assay: as above
[14] = molecular target: peptide-deficient (empty) HLA-A*30:01/hb2m (human); assay: as above
[15] = molecular target: peptide-deficient (empty) HLA-A*68:02/hb2m (human); assay: as above
[16] = molecular target: peptide-deficient (empty) HLA-B*08:01/hb2m (human) (UniProt P01889); assay: as above
[17] = molecular target: peptide-deficient (empty) HLA-B*37:01/hb2m (human); assay: as above
[18] = molecular target: peptide-deficient (empty) HLA-G*01:01/hb2m (human); assay: as above
[19] = molecular target: HLA-A*24:02/hb2m/VYGJVRACL (peptide-loaded) (human); assay: SPR; HLA-A*24:02/[..], 0.1 to 10 µM, over chicken TAPBPR-biotin on a streptavidin chip; kinetic fit
[20] = molecular target: HLA-F*01:01/hb2m/LILRWE(bF)D (human); assay: SPR; HLA-F*01:01/hb2m/LILRWE(bF)D, 0.0625 to 2 µM, over chTAPBPR-biotin on a streptavidin chip; kinetic fit
[21] = molecular target: MR1 C262S loaded with acetyl-6-formylpterin (Ac-6-FP) (UniProt Q95460); assay: SPR; MR1 C262S/Ac-6-FP, 10 to 100 µM, over hTAPBPR^RQ-biotin on a streptavidin chip; steady-state fit in the inset
1G4 TCR [22] = assay: flow cytometry; PE tetramer (1 µg/mL) on human T cells transduced with the 1G4 TCR; negative control; no percent sign printed

pKd [1]: 4.01
Substance: human TAPBPR luminal domain (hTAPBPR) (from UniProt Q9BX59 22-405)

tet+ (share of events in the tetramer-positive live gate) (1G4 TCR [2]): 38.7
Substance: Exchanged A2/M4A (NY-ESO-1) (from UniProt A*02:01) (peptide-MHC)

tet+ (share of events in the tetramer-positive live gate) (1G4 TCR [3]): 78.7
tet+ (share of events in the tetramer-positive live gate) (1G4 TCR [2]): 71.4
Substance: NY-ESO-1 (HLA-A*02:01/… tetramer) (peptide-MHC)

tet+ (share of events in the tetramer-positive live gate) (1G4 TCR [2]): 72.1
Substance: Exchanged S1A (NY-ESO-1) (from UniProt A*02:01) (peptide-MHC)

pKd [4]: 4.21
Substance: hTAPBPR^KRQ (R105K, K211R, R270Q) (from UniProt Q9BX59 22-405)

tet+ (share of events in the tetramer-positive live gate) (1G4 TCR [2]): 2.18
Substance: Exchanged A2/W5A (NY-ESO-1) (from UniProt A*02:01) (peptide-MHC)

Substance: chicken TAPBPR luminal domain (chTAPBPR)
-TΔS [5]: -48.1 kJ/mol
ΔG [5]: -18.8 kJ/mol
ΔH [5]: 29.3 kJ/mol
kapp of fluorescent peptide binding at 5 uM chaperone (FP) [6]: 0.00017 s⁻¹
pKd [7]: 4.76
pKd [8]: 6.77
pKd [1]: 4.72
pKd [9]: 5.84
pKd [10]: 5.53
pKd [11]: 6.04
pKd [12]: 5.77
pKd [13]: 6.54
pKd [14]: 5.89
pKd [15]: 6.37
pKd [16]: 5.72
pKd [17]: 5.66
pKd [18]: 4.95
pKd [19]: 6.43
pKd [20]: 6.12

pKd [21]: 4.31
Substance: hTAPBPR^RQ (K211R, R270Q) (from UniProt Q9BX59 22-405)

Substance: Refolded Rubella (from UniProt A*02:01) (peptide-MHC)
tet+ (share of events in the tetramer-positive live gate) (1G4 TCR [22]): 0.75

— patent publication US20250179143A1, “SYSTEMS AND METHODS FOR CHAPERONE-MEDIATED LIGAND EXCHANGE ON MHC-I AND MHC-RELATED MOLECULES USING CHICKEN TAPBPR” (priority 2022, published 2025)
